Consider 29 molecules from PMC6555819, “Comprehensive study of nuclear receptor DNA binding provides a revised framework for understanding receptor specificity”.

B1: NRC3_random_hg19_110_o1 (dsDNA)
DNA 1: GCTGCTGATTCATAGCTTGTAACTTCGTGTTCTTTAGCGATTGACAGCGTAGAATGAAGG
DNA 2: CCTTCATTCTACGCTGTCAATCGCTAAAGAACACGAAGTTACAAGCTATGAATCAGCAGC
B2: NRC3_wobSeed29_DR1_G17A_o1 (dsDNA)
DNA 1: GCGCTTACGGGTCAAAAGTTATAGCATGAATAGAATGCGATTGACAGCGTAGAATGAAGG
DNA 2: CCTTCATTCTACGCTGTCAATCGCATTCTATTCATGCTATAACTTTTGACCCGTAAGCGC
B3: NRC3_random_hg19_151_o1 (dsDNA)
DNA 1: GCCCCAATCTACTAGAAACACTTCCTGGAGAACCCGGCGATTGACAGCGTAGAATGAAGG
DNA 2: CCTTCATTCTACGCTGTCAATCGCCGGGTTCTCCAGGAAGTGTTTCTAGTAGATTGGGGC
B4: NRC3_wobSeed136_DR5_A9C_o1 (dsDNA)
DNA 1: GCTAGCCTCGGTCATTCAGGGGCCAGTATAGAAAGCGCGATTGACAGCGTAGAATGAAGG
DNA 2: CCTTCATTCTACGCTGTCAATCGCGCTTTCTATACTGGCCCCTGAATGACCGAGGCTAGC
B5: NRC3_random_hg19_405_o1 (dsDNA)
DNA 1: GCAGCGCACCAGCATGGCACATGTATACATATGTAAGCGATTGACAGCGTAGAATGAAGG
DNA 2: CCTTCATTCTACGCTGTCAATCGCTTACATATGTATACATGTGCCATGCTGGTGCGCTGC
B6: NRC3_random_hg19_477_o1 (dsDNA)
DNA 1: GCAACAAACTTCCTTGCTCTAGTTCATCAGCAATGAGCGATTGACAGCGTAGAATGAAGG
DNA 2: CCTTCATTCTACGCTGTCAATCGCTCATTGCTGATGAACTAGAGCAAGGAAGTTTGTTGC
B7: NRC3_wobSeed114_DR4_C13G_o1 (dsDNA)
DNA 1: GCAATACAGGGTGATCGTAGGCCAGAGTACGCACAGGCGATTGACAGCGTAGAATGAAGG
DNA 2: CCTTCATTCTACGCTGTCAATCGCCTGTGCGTACTCTGGCCTACGATCACCCTGTATTGC
B8: NRC3_wobSeed50_DR2_G18A_o1 (dsDNA)
DNA 1: GCCCTAGTTGGTCAGGAAGTCACACACCGGATATGAGCGATTGACAGCGTAGAATGAAGG
DNA 2: CCTTCATTCTACGCTGTCAATCGCTCATATCCGGTGTGTGACTTCCTGACCAACTAGGGC
B9: NRC3_random_hg19_86_o1 (dsDNA)
DNA 1: GCAAACAAGGAGGAGAGGTGTTCTGGAGAACTGCTTGCGATTGACAGCGTAGAATGAAGG
DNA 2: CCTTCATTCTACGCTGTCAATCGCAAGCAGTTCTCCAGAACACCTCTCCTCCTTGTTTGC
B10: NRC3_random_hg19_472_o1 (dsDNA)
DNA 1: GCTGATGGGCTTCAAGTTGCTAACCCAGGAAATGGAGCGATTGACAGCGTAGAATGAAGG
DNA 2: CCTTCATTCTACGCTGTCAATCGCTCCATTTCCTGGGTTAGCAACTTGAAGCCCATCAGC
B11: NRC3_random_hg19_122_o1 (dsDNA)
DNA 1: GCTGGCAATGGCTGGACCACTCCAAGAACTGTGTGGGCGATTGACAGCGTAGAATGAAGG
DNA 2: CCTTCATTCTACGCTGTCAATCGCCCACACAGTTCTTGGAGTGGTCCAGCCATTGCCAGC
B12: NRC3_random_hg19_61_o1 (dsDNA)
DNA 1: GCGCAGAGGTTGCAATGAGCCAAGATTGTACCACTGGCGATTGACAGCGTAGAATGAAGG
DNA 2: CCTTCATTCTACGCTGTCAATCGCCAGTGGTACAATCTTGGCTCATTGCAACCTCTGCGC
B13: NRC3_wobSeed53_DR2_C13A_o1 (dsDNA)
DNA 1: GCCCTTACGGGTAACGAGGTTATAGCACGACGAGCGGCGATTGACAGCGTAGAATGAAGG
DNA 2: CCTTCATTCTACGCTGTCAATCGCCGCTCGTCGTGCTATAACCTCGTTACCCGTAAGGGC
B14: NRC3_random_hg19_97_o1 (dsDNA)
DNA 1: GCAAAGGCCTGAGAACCAGGACCTCCAGTGTCCTCAGCGATTGACAGCGTAGAATGAAGG
DNA 2: CCTTCATTCTACGCTGTCAATCGCTGAGGACACTGGAGGTCCTGGTTCTCAGGCCTTTGC
B15: NRC3_wobSeed116_DR4_C15G_o1 (dsDNA)
DNA 1: GCAGAATGAGGTTAGCAAAGATCAGGGAAACGCTTGGCGATTGACAGCGTAGAATGAAGG
DNA 2: CCTTCATTCTACGCTGTCAATCGCCAAGCGTTTCCCTGATCTTTGCTAACCTCATTCTGC
B16: NRC3_wobSeed100_DR4_C23G_o1 (dsDNA)
DNA 1: GCCCTACTGGGCCACGAAAGGTGATTGATTCAGTGAGCGATTGACAGCGTAGAATGAAGG
DNA 2: CCTTCATTCTACGCTGTCAATCGCTCACTGAATCAATCACCTTTCGTGGCCCAGTAGGGC
B17: NRC3_wobSeed21_DR0_C13A_o1 (dsDNA)
DNA 1: GCCGTCAAAGTTAAAGGTAACGTAACAGAAAGCAGCGCGATTGACAGCGTAGAATGAAGG
DNA 2: CCTTCATTCTACGCTGTCAATCGCGCTGCTTTCTGTTACGTTACCTTTAACTTTGACGGC
B18: NRC3_random_hg19_193_o1 (dsDNA)
DNA 1: GCTGGAAGATGAAGAAGAACTATTGCTCGATGGAGAGCGATTGACAGCGTAGAATGAAGG
DNA 2: CCTTCATTCTACGCTGTCAATCGCTCTCCATCGAGCAATAGTTCTTCTTCATCTTCCAGC
B19: NRC3_random_hg19_71_o1 (dsDNA)
DNA 1: GCCATGTCACCTCCCTGAGGTGCAGTTTGCTTCAAGGCGATTGACAGCGTAGAATGAAGG
DNA 2: CCTTCATTCTACGCTGTCAATCGCCTTGAAGCAAACTGCACCTCAGGGAGGTGACATGGC
B20: NRC3_wobSeed27_DR1_C20G_o1 (dsDNA)
DNA 1: GCACTCGGAGGACAAAGGTGAGAGCTACGCCAGTGAGCGATTGACAGCGTAGAATGAAGG
DNA 2: CCTTCATTCTACGCTGTCAATCGCTCACTGGCGTAGCTCTCACCTTTGTCCTCCGAGTGC
B21: NRC3_wobSeed27_DR1_C20A_o1 (dsDNA)
DNA 1: GCACTCGGAGGACAAAGGTAAGAGCTACGCCAGTGAGCGATTGACAGCGTAGAATGAAGG
DNA 2: CCTTCATTCTACGCTGTCAATCGCTCACTGGCGTAGCTCTTACCTTTGTCCTCCGAGTGC
B22: NRC3_wobSeed113_DR4_G20A_o1 (dsDNA)
DNA 1: GCATATGTAGGTTAGCTGGAGTCATTCAGACTAGGCGCGATTGACAGCGTAGAATGAAGG
DNA 2: CCTTCATTCTACGCTGTCAATCGCGCCTAGTCTGAATGACTCCAGCTAACCTACATATGC
B23: NRC3_random_hg19_182_o1 (dsDNA)
DNA 1: GCGCAGGAGACTCACTTGTGCATGCAGGGTTGAGGCGCGATTGACAGCGTAGAATGAAGG
DNA 2: CCTTCATTCTACGCTGTCAATCGCGCCTCAACCCTGCATGCACAAGTGAGTCTCCTGCGC
B24: NRC3_random_hg19_39_o1 (dsDNA)
DNA 1: GCGGGCAACTCGTTCGACTCAGGGAGCTATGGGTAGGCGATTGACAGCGTAGAATGAAGG
DNA 2: CCTTCATTCTACGCTGTCAATCGCCTACCCATAGCTCCCTGAGTCGAACGAGTTGCCCGC
B25: NRC3_random_hg19_201_o1 (dsDNA)
DNA 1: GCCAAGGCTACCAAAGCAGTTTCTGGGCATGCTGAGGCGATTGACAGCGTAGAATGAAGG
DNA 2: CCTTCATTCTACGCTGTCAATCGCCTCAGCATGCCCAGAAACTGCTTTGGTAGCCTTGGC
B26: NRC3_random_hg19_46_o1 (dsDNA)
DNA 1: GCAGTAATGCCAATGTCATGATGTGGTCCAGGAATGGCGATTGACAGCGTAGAATGAAGG
DNA 2: CCTTCATTCTACGCTGTCAATCGCCATTCCTGGACCACATCATGACATTGGCATTACTGC
B27: NRC3_wobSeed133_DR5_C13A_o1 (dsDNA)
DNA 1: GCCGTCCAAGGTAAATGCTAGGTCAGTGAAAGCATTGCGATTGACAGCGTAGAATGAAGG
DNA 2: CCTTCATTCTACGCTGTCAATCGCAATGCTTTCACTGACCTAGCATTTACCTTGGACGGC
B28: NRC3_wobSeed133_DR5_T12G_o1 (dsDNA)
DNA 1: GCCGTCCAAGGGCAATGCTAGGTCAGTGAAAGCATTGCGATTGACAGCGTAGAATGAAGG
DNA 2: CCTTCATTCTACGCTGTCAATCGCAATGCTTTCACTGACCTAGCATTGCCCTTGGACGGC
B29: NRC3_random_hg19_65_o1 (dsDNA)
DNA 1: GCATGGTGATGAAAGCAAAGGAGTAATGTTTCTGTGGCGATTGACAGCGTAGAATGAAGG
DNA 2: CCTTCATTCTACGCTGTCAATCGCCACAGAAACATTACTCCTTTGCTTTCATCACCATGC

LXRb:RXRa, sequence (P55055 whole entry, chain 1 of 2): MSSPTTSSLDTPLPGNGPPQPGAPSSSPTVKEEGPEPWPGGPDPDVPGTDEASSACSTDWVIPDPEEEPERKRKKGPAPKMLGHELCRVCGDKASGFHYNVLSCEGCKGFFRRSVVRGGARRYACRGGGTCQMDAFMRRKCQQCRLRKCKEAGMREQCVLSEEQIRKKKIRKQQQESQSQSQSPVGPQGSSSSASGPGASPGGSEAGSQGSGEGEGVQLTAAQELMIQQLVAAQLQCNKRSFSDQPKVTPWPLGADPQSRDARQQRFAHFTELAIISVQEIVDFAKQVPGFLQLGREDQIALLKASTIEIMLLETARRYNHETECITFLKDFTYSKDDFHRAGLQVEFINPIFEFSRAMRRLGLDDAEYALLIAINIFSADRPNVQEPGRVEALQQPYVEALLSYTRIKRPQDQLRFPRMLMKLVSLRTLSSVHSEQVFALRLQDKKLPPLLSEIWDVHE
LXRb:RXRa, sequence (P19793 whole entry, chain 2 of 2): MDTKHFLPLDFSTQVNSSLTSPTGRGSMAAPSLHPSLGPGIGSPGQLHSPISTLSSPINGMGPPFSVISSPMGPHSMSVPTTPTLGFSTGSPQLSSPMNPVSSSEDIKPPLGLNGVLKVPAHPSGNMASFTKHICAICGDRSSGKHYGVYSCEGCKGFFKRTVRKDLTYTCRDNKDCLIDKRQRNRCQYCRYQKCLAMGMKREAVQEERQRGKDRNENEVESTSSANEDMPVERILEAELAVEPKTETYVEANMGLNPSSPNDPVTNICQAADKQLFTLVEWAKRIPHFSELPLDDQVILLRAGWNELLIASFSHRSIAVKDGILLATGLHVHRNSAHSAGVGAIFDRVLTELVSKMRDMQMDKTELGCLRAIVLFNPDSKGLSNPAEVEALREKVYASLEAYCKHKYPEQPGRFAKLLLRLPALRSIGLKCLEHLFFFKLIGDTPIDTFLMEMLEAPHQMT
RARg:RXRa, sequence (P13631 whole entry, chain 1 of 2): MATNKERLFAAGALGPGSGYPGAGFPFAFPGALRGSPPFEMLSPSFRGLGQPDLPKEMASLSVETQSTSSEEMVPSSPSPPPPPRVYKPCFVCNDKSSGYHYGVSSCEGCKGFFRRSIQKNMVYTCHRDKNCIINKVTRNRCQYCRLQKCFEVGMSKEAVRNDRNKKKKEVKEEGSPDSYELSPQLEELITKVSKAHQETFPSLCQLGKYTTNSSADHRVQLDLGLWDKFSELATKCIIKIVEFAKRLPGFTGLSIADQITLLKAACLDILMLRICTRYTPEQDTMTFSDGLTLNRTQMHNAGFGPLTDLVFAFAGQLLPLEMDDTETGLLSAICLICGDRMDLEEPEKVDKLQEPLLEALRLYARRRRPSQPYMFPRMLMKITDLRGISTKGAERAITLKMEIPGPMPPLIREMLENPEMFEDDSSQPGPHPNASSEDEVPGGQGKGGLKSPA
RARg:RXRa, sequence (P19793 whole entry, chain 2 of 2): as the sequence (P19793 whole entry, chain 2 of 2) above

The first data set concerns the target RARg:RXRa (Homo sapiens, UniProt P13631;P19793 full;full). Briefly: no ligand; PBM; 270 nM : 90 nM RXRa; PBS pH 7.4, 2% milk, 0.02% Triton X-100, 1 mM DTT, BSA, 0.4 mg/ml salmon testes DNA. The conditions noted are these: tags: His kept;His cleaved; copies: 1;1; label: surface-attached array probe. The method in brief: (§1)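 For binding z-scores, the reference was random background probes on custom Agilent 4×180K protein-binding microarrays. These arrays were incubated 1 h with ligand-free nuclear receptor dimers in PBS pH 7.4, 2% milk, 0.02% Triton X-100, 1 mM DTT, 0.2 mg/mL BSA and 0.4 mg/ml salmon testes DNA. Fluorescence was scanned after antibody detection of each partner (one per run) and regression-normalized.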
With B1, the binding signal is -0.76 PBM z-score against 500 random probes. On the same count and under the same terms, with B2 the figure was 4.11 PBM z-score against 500 random probes; with B3, -0.01 PBM z-score against 500 random probes.

A further data set concerns the target LXRb:RXRa (Homo sapiens, UniProt P55055;P19793 full;full). Described as above. The conditions noted are these: tags: His kept;His cleaved; copies: 1;1; label: surface-attached array probe. In a few lines:
as §1
As to B1, the binding signal was -0.27 PBM z-score against 500 random probes.

With B4, the binding signal was 0.42 PBM z-score against 500 random probes. B5: the binding signal is -0.44 PBM z-score against 500 random probes. As for B6, the binding signal was 0.49 PBM z-score against 500 random probes. As for B7, the binding signal was 0.1 PBM z-score against 500 random probes. Same read-out and setting: with B8 the figure was 0.38 PBM z-score against 500 random probes. Take B9: the binding signal is 0.18 PBM z-score against 500 random probes.

As to B2, the binding signal is 3.65 PBM z-score against 500 random probes.

Turning to B10, the binding signal is -0.26 PBM z-score against 500 random probes. B11: the binding signal is -0.85 PBM z-score against 500 random probes.

As to B12, the binding signal is -0.15 PBM z-score against 500 random probes. For B3, the binding signal was 0.38 PBM z-score against 500 random probes. Take B13: the binding signal was 0.41 PBM z-score against 500 random probes. As to B14, the binding signal is -0.68 PBM z-score against 500 random probes. As to B15, the binding signal was 0.41 PBM z-score against 500 random probes. On to B16, for which the binding signal is -0.2 PBM z-score against 500 random probes. For the molecule B17, the binding signal was 0.26 PBM z-score against 500 random probes. On to B18, for which the binding signal was -0.54 PBM z-score against 500 random probes. Same read-out and setting: with B19 the figure was 0.34 PBM z-score against 500 random probes. For the molecule B20, the binding signal was 0.32 PBM z-score against 500 random probes. Consider B21, for which the binding signal was -0.49 PBM z-score against 500 random probes. With B22, the binding signal was 0.16 PBM z-score against 500 random probes.

Turning to B23, the binding signal was -1.08 PBM z-score against 500 random probes. On to B24, for which the binding signal was -0.61 PBM z-score against 500 random probes. With B25, the binding signal is -0.95 PBM z-score against 500 random probes. On to B26, for which the binding signal is -0.76 PBM z-score against 500 random probes. Regarding B27, the binding signal is 0.46 PBM z-score against 500 random probes. Consider B28, for which the binding signal is 0.44 PBM z-score against 500 random probes. For B29, the binding signal was 0.22 PBM z-score against 500 random probes.

Another data set deals with PPARa:RXRa (Homo sapiens, UniProt Q07869;P19793 full;full). The data set is described as above. To be noted: tags: GST kept;His cleaved; copies: 1;1; label: surface-attached array probe. The method in brief: as §1
PPARa:RXRa, sequence (Q07869 whole entry, chain 1 of 2): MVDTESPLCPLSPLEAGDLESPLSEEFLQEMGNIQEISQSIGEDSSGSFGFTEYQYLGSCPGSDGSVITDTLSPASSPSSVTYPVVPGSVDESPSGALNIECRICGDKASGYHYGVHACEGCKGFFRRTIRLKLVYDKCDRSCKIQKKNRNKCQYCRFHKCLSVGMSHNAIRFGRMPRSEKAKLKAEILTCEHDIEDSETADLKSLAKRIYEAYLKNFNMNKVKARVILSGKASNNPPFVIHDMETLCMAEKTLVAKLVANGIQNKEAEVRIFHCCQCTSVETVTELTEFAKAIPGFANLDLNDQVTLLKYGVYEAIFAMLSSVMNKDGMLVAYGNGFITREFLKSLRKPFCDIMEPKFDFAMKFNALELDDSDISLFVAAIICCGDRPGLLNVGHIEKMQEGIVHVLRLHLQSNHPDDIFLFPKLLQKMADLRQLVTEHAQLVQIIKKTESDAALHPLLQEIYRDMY
PPARa:RXRa, sequence (P19793 whole entry, chain 2 of 2): as the sequence (P19793 whole entry, chain 2 of 2) above
With B25, the binding signal was -0.55 PBM z-score against 500 random probes.
